Target: T1, VEGF (biotinylated target on streptavidin BLI probe) (UniProt P15692-4 27-191, limits assumed, biotin (site not stated))
T1 construct: also called vascular endothelial growth factor
Assay: binding kinetics, Kd (nM); Example 6 describes BLI on biotinylated target

T1 sequence (P15692 other isoform, or with tags, fused parts or gaps limits assumed): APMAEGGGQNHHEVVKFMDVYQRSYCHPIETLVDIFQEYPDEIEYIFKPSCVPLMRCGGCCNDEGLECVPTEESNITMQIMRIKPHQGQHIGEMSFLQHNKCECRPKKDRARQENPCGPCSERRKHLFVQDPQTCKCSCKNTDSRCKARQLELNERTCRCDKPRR

B1: G5-1 (VHH)
VHH: EVQLQASGGGFVQPGGSLRLSCAASGSTYANYVMGWFRQAPGKEREFVSAISAFNDEVLYYADSVKGRFTISRDNSKNTVYLQMNSLRAEDTATYYCARAGQEEASKNAPGQEPVRYWGQGTQVTVSS
notes: unconjugated comparator of conjugates 24 and 25; also called G5-1 aVEGF VHH, unconjugated; G5-1 alone
Kd: 29.3 nM
